Assay results published in publication PMC7065722 (Biochemistry, 2019).

Assays:
O=C(O)C[C@H](O)C(=O)O = assay: crystal structure; assay type: biochemical, Leishmania major; conditions: [4Fe-4S] cluster active site, same binding mode as wild type
[1] = molecular target: T1, LmFH-2 (cytosolic class I fumarate hydratase) (Leishmania major, UniProt E9AE57); assay: crystal structure at […] Å; assay type: biochemical
T1 sequence (E9AE57 1-568): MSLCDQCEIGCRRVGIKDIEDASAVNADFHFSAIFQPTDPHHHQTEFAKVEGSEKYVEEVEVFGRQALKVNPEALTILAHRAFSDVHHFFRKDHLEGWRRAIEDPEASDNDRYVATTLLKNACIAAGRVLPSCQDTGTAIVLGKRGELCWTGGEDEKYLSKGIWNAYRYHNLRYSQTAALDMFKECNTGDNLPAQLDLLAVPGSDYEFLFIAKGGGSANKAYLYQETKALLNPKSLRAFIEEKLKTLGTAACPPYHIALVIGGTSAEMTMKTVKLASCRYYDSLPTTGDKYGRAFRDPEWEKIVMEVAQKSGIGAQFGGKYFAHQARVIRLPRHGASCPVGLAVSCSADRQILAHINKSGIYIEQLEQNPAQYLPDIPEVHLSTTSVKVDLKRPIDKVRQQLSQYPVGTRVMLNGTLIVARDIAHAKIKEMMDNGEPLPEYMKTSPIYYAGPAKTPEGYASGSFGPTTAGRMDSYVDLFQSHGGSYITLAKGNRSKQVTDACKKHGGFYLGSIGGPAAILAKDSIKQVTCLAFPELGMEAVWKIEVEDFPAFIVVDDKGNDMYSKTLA

LmFH-2-R173A = molecular target: T2, LmFH-2-R173A (Leishmania major, UniProt E9AE57, R173A)
T2 sequence (E9AE57 1-568 R173A): T1 sequence (E9AE57 1-568)

Molecule	Km (O=C(O)C[C@H](O)C(=O)O) [mM]	Vmax (O=C(O)C[C@H](O)C(=O)O) [µmol/min/mg]	kcat (O=C(O)C[C@H](O)C(=O)O) [s⁻¹]	kcat/Km (O=C(O)C[C@H](O)C(=O)O) [M⁻¹ s⁻¹]	IC50 [1] [mM]	Km (LmFH-2-R173A) [mM]
LmFH-2-R421A (Leishmania major; R421A)	4.1 ± 0.3	0.13	0.144 ± 0.002	35 ± 3		
LmFH-2-T467A (Leishmania major; T467A)	4.4 ± 0.2	0.047	0.052 ± 0.001	12 ± 1		
O=C(O)CCC(=O)O [succinate]					34.2 ± 1.2	
LmFH-2-H334A (Leishmania major; H334A)	4.6 ± 0.1	52	57.6 ± 0.4	12500 ± 400		
LmFH-2-R471A (Leishmania major; R471A)	4.3 ± 0.2	0.034	0.038 ± 0.001	9 ± 1		
O=C(O)/C=C/C(=O)O [fumarate]						2.6 ± 0.6
